# Biological target: acetylcholine receptor (Homo sapiens, UniProt P02708)
# Test: SPR binding affinity (RU) of optimized 5mer/6mer/7mer peptides, Examples 6-7
# Conditions: SPR, Resonance Units; peptides tested at 10 μM; 6mer-2 Top sequence
# In short: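 Response units from SPR give the binding values listed. Each synthesized peptide was run at 10 μM over the receptor.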
# Chain of acetylcholine receptor (P02708 21-457): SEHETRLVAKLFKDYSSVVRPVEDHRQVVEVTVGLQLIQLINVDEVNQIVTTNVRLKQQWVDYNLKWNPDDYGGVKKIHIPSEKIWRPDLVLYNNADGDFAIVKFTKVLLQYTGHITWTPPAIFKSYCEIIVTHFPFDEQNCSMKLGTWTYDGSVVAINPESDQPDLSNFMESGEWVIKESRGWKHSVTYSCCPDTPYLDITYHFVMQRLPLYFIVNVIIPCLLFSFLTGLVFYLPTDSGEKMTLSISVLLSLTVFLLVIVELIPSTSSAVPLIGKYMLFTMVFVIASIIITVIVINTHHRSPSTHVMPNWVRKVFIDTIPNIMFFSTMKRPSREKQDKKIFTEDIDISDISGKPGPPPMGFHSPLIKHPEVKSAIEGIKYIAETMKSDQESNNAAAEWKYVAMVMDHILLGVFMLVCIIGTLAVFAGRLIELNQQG
row,Substance,Binding affinity
1,6mer-2-403 (KGVLRK),123 Ru
2,6mer-2-404 (RVLSKR),121 Ru
3,6mer-2-405 (KGYRKK),137 Ru
4,6mer-2-406 (KGIYRR),139 Ru
5,6mer-2-407 (KQVSKR),122 Ru
6,6mer-2-408 (KQIYRR),139 Ru
7,6mer-2-409 (KRRRKR),139 Ru
8,6mer-2-410 (KRFRKK),153 Ru
9,6mer-2-411 (RSRQKK),121 Ru
10,6mer-2-412 (KRFLKK),139 Ru
11,6mer-2-413 (RLILKR),136 Ru
12,6mer-2-414 (KWRQKK),135 Ru
13,6mer-2-415 (KGRCKK),149 Ru
14,6mer-2-416 (RWRLRR),131 Ru
15,6mer-2-417 (RWVYKK),151 Ru
16,6mer-2-418 (RVQYKK),121 Ru
17,6mer-2-419 (RSRYKK),154 Ru
18,6mer-2-420 (RRQYRK),128 Ru
19,6mer-2-421 (KVICRK),124 Ru
20,6mer-2-422 (RLITRR),154 Ru
21,6mer-2-423 (RLQYRK),154 Ru
22,6mer-2-424 (RLYCKK),139 Ru
23,6mer-2-425 (KLQTKK),145 Ru
24,6mer-2-426 (KGQRRK),141 Ru
25,6mer-2-427 (RLQRRR),147 Ru
26,6mer-2-428 (KVFLKK),142 Ru

row,Substance,Binding affinity
1,6mer-2-429 (RWRQRK),123 Ru
2,6mer-2-430 (RWFRRR),139 Ru
3,6mer-2-431 (KLILKR),135 Ru
4,6mer-2-432 (KVVRKR),148 Ru
5,6mer-2-433 (RWIQKR),139 Ru
6,6mer-2-434 (RVIRRK),154 Ru
7,6mer-2-435 (RWVYKR),154 Ru
8,6mer-2-436 (KVLYKR),148 Ru
9,6mer-2-437 (KQVCKK),121 Ru
10,6mer-2-438 (RLLCRK),131 Ru
11,6mer-2-439 (KWFSKR),153 Ru
12,6mer-2-440 (KQLSKK),153 Ru
13,6mer-2-441 (KSQRKR),139 Ru
14,6mer-2-442 (RLVQKR),139 Ru
15,6mer-2-443 (RQYCRR),122 Ru
16,6mer-2-444 (RQRLKK),141 Ru
17,6mer-2-445 (RLVCKR),145 Ru
18,6mer-2-446 (RQLQKK),153 Ru
19,6mer-2-447 (RVYTKK),139 Ru
20,6mer-2-448 (RSFRRR),128 Ru
21,6mer-2-449 (RGRCRR),154 Ru
22,6mer-2-450 (RQRYRK),123 Ru
23,6mer-2-451 (RGRCKK),148 Ru
24,6mer-2-452 (KGLYKR),146 Ru
25,6mer-2-453 (RLVRKK),141 Ru
26,6mer-2-454 (RSVQKK),133 Ru

row,Substance,Binding affinity
1,6mer-2-455 (RWYSKR),135 Ru
2,6mer-2-456 (KSVTKR),147 Ru
3,6mer-2-457 (RRVYKR),146 Ru
4,6mer-2-458 (RRFQRR),122 Ru
5,6mer-2-459 (KLFSRK),139 Ru
6,6mer-2-460 (RSQCRK),139 Ru
7,6mer-2-461 (KSVCRR),149 Ru
8,6mer-2-462 (KQICKR),145 Ru
9,6mer-2-463 (KLLTRR),124 Ru
10,6mer-2-464 (KSFRKK),135 Ru
11,6mer-2-465 (KGVSKR),122 Ru
12,6mer-2-466 (RLLTRR),142 Ru
13,6mer-2-467 (KQYSRR),142 Ru
14,6mer-2-468 (RSFSKR),133 Ru
15,6mer-2-469 (RLRTKK),153 Ru
16,6mer-2-470 (RLRRRK),153 Ru
17,6mer-2-471 (KWISRR),136 Ru
18,6mer-2-472 (RSRLRR),148 Ru
19,6mer-2-473 (RGRLRK),131 Ru
20,6mer-2-474 (RWQQRR),128 Ru
21,6mer-2-475 (KRFCRR),139 Ru
22,6mer-2-476 (KGIRKK),148 Ru
23,6mer-2-477 (RSRTRR),135 Ru
24,6mer-2-478 (KWYTRK),145 Ru
25,6mer-2-479 (KWRLKK),154 Ru
26,6mer-2-480 (RRFTKK),147 Ru

row,Substance,Binding affinity
1,6mer-2-481 (RQRYKK),131 Ru
2,6mer-2-482 (KGQTRR),154 Ru
3,6mer-2-483 (RRYLKK),121 Ru
4,6mer-2-484 (RWYTKR),148 Ru
5,6mer-2-485 (RQIQKR),148 Ru
6,6mer-2-486 (KQQSKK),121 Ru
7,6mer-2-487 (KSYTKR),121 Ru
8,6mer-2-488 (KVYRRK),146 Ru
9,6mer-2-489 (RVISKK),142 Ru
10,6mer-2-490 (RRYQKK),145 Ru
11,6mer-2-491 (KRICKR),135 Ru
12,6mer-2-492 (RLIQKK),148 Ru
13,6mer-2-493 (KGVRRK),123 Ru
14,6mer-2-494 (KGLLRR),144 Ru
15,6mer-2-495 (KLLCKK),121 Ru
16,6mer-2-496 (RVRYRK),144 Ru
17,6mer-2-497 (KSYTRR),148 Ru
18,6mer-2-498 (KGLCRR),127 Ru
19,6mer-2-499 (RLFTKR),145 Ru
20,6mer-2-500 (KRICRR),146 Ru
21,6mer-2-501 (KSYSKK),144 Ru
22,6mer-2-502 (KSFCKR),144 Ru
23,6mer-2-503 (KVQTKK),154 Ru
24,6mer-2-504 (RGLTRK),154 Ru
25,6mer-2-505 (KRQCKK),148 Ru
26,6mer-2-506 (KSLLKK),135 Ru

# Same assay, conditions: SPR, Resonance Units; peptides tested at 10 μM; 6mer-2 Top sequence (Table 12)
row,Substance,Binding affinity
1,6mer-2-348 (KSQLRR),153 Ru
2,6mer-2-349 (RRLSRR),137 Ru
3,6mer-2-350 (RGQTRK),148 Ru
4,6mer-2-351 (KLYTKR),135 Ru
5,6mer-2-352 (RWFYRR),137 Ru
6,6mer-2-353 (RLQTKK),137 Ru
7,6mer-2-354 (RWISKK),135 Ru
8,6mer-2-355 (RGIRKK),124 Ru
9,6mer-2-356 (RLLQRR),145 Ru
10,6mer-2-357 (RGQRKK),151 Ru
11,6mer-2-358 (RQIYKK),154 Ru
12,6mer-2-359 (RLFCKK),136 Ru
13,6mer-2-360 (KGVRRR),141 Ru
14,6mer-2-361 (RSFQRR),153 Ru
15,6mer-2-362 (RGRQKR),154 Ru
16,6mer-2-363 (KSIYRK),147 Ru
17,6mer-2-364 (KVFTKK),154 Ru
18,6mer-2-365 (RWRYRR),121 Ru
19,6mer-2-366 (KQYYRR),142 Ru
20,6mer-2-367 (RWRSRR),142 Ru
21,6mer-2-368 (RLRTRR),142 Ru
22,6mer-2-369 (KVVRRR),145 Ru
23,6mer-2-370 (KSLLRR),142 Ru
24,6mer-2-371 (KRLSRR),148 Ru
25,6mer-2-372 (KLVQRR),141 Ru
26,6mer-2-373 (KLIYRK),139 Ru
27,6mer-2-374 (KRQLKK),125 Ru
28,6mer-2-375 (RVVQKK),131 Ru

row,Substance,Binding affinity
1,6mer-2-376 (KQQCKR),141 Ru
2,6mer-2-377 (RRYCRR),142 Ru
3,6mer-2-378 (KRFQRK),131 Ru
4,6mer-2-379 (RGVQKR),127 Ru
5,6mer-2-380 (RLVYRK),141 Ru
6,6mer-2-381 (KVYRRR),139 Ru
7,6mer-2-382 (KSVSRR),148 Ru
8,6mer-2-383 (KLVRRK),128 Ru
9,6mer-2-384 (RSFQKK),142 Ru
10,6mer-2-385 (RGVCKR),154 Ru
11,6mer-2-386 (KWQSKR),136 Ru
12,6mer-2-387 (KWLCKK),146 Ru
13,6mer-2-388 (KRFQKK),139 Ru
14,6mer-2-389 (KSLYKK),153 Ru
15,6mer-2-390 (KWLRRR),145 Ru
16,6mer-2-391 (KQYQKR),141 Ru
17,6mer-2-392 (RQILKR),149 Ru
18,6mer-2-393 (RGLQRK),145 Ru
19,6mer-2-394 (KLVLKR),141 Ru
20,6mer-2-395 (KWRYRR),148 Ru
21,6mer-2-396 (KWLQRR),122 Ru
22,6mer-2-397 (RSIYRK),154 Ru
23,6mer-2-398 (RQQRRR),141 Ru
24,6mer-2-399 (RWLTRR),148 Ru
25,6mer-2-400 (RQIRRR),154 Ru
26,6mer-2-401 (RSILRK),153 Ru
27,6mer-2-402 (KRYSRR),145 Ru

# Reference: US20250011363A1, “OPTIMIZED SHORTENED PEPTIDE THAT BINDS TO ACETYLCHOLINE RECEPTOR, AND USE THEREOF” (SKINMED CO., LTD., priority 2021, published 2025)
